T1: RAW264.7 cells (MSR1 positive) (Mus musculus, UniProt P30204)
T1 construct: using MSR1 positive RAW264.7 cells (ATCC, Catalog #TIB-71); host or cells: RAW264.7
T1 sequence (P30204 1-458): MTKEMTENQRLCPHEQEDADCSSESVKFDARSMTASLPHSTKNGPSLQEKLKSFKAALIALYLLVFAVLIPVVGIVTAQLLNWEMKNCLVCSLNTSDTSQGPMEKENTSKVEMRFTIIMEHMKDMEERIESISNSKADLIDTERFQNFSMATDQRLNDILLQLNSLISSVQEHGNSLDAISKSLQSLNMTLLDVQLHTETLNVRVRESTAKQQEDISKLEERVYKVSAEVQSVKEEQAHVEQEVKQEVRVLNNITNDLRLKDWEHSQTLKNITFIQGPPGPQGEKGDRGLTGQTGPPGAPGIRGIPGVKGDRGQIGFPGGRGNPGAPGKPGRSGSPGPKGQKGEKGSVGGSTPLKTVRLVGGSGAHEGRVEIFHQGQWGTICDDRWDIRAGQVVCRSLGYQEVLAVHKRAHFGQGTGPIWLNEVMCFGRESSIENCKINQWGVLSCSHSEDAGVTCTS

B1: H1H21234N-N297Q-LP13 (conjugate)
VH: QVQLQESGPGLVKPSETLSLTCTVTGGSISRNYWSWIRQPPGKGLEWIGYIYYSGSIDYNPSLKSRVTISVDTSKNQFSLKLSSMTAADTAVYYCARDRWNWKYGMDVWGQGTTVIVSS
VL: EIVLTQSPGTLSLSPGERATLSCRASQTVRNNYLAWYHQKPGQAPRLLIYGASSRATGIPDRFSGSGSGTDFTLTISRLEPEDFTVYYCHQYGNSPWTFGQGTKMEIKR
B2: H1H21227N-N297Q: "modified versions of 21227N (H1H21227N-N297Q and H1H21227N-N297D)"; anti-MSR1 antibody "with a N297Q single point mutation" (antibody, V domains shown)
VH: QVQLVQSGAEVKKPGASVKVSCKVSGYTLTELSIHWVRQVPGKGLEWMGGFDPEEGETIFAQEFRDRVTLTEDTSPDTAYMELSSLKSEDAAVYYCTTPRYCNNGICYDYWGQGTLVTVSS
VL: DIQMTQSPSSLSASVGDRVTITCRASQSISNYLNWYQQKPGKAPKLLIYTASSLQSGVPSRFSGSGSGTDFTLTISSLQTEDFATYYCQQSYSNFPITFGQGTRLEIKR

What was measured:
[1] = tested on: Msr1^hu/hu ApoE^−/− mice, peritoneal macrophages; assay: LPS-mediated expression of CD80 on peritoneal macrophages (flow cytometry); assay type: in vivo, mouse; settings: for LPS-mediated expression of CD80, pMΦ Cells: hMSR1+F4/80+CD11b+ peritoneal macrophages; for LPS-mediated expression of CD80, non-pMΦ Cells: hMSR1−F4/80−CD11b− cells
Procedure: Assay protocol for ex vivo LPS-induced responses. In ex vivo LPS challenge experiments, mice were intraperitoneally administered with 10 μL/g of anti-MSR1 antibody-steroid conjugates (H1H21234N-N297Q-LP13), isotype control steroid conjugate (Isotype control-LP13), unconjugated anti-MSR1 antibody (H1H21234N-N297Q) and isotype control antibodies at different time points (24, 48, and 72 hours) prior to harvesting the peritoneal cells from peritoneal cavity. […] All mice were sacrificed at 0 hour time point and peritoneal cells were obtained from the peritoneum by the peritoneal lavage technique. In brief, 5 mL of ice cold 1×PBS (ThermoFisher Scientific, Cat #20012027) containing 2% BSA (Gibco, Cat #A9576) and 0.6 mM EDTA (ThermoFisher Scientific, Cat #15575020) were injected into the peritoneal cavity using 27 g needle. […] The resuspended cells were plated at 500,000 cells per well in 24-well tissues culture plates and incubated with or without 10 ng/mL of LPS for 18 hours.
(§1) Assay protocol for in vivo LPS-induced responses. In in vivo LPS challenge experiments, mice were intraperitoneally administered with 10 μL/g of decreasing concentrations of anti-MSR1 antibody-steroid conjugates (H1H21234N-N297Q-LP13) and isotype control steroid conjugate (Isotype control-N297Q-LP13) at 24 hours prior to in vivo LPS challenge. PBS and free steroid P4 were intraperitoneally injected at 2 hours prior to in vivo LPS challenge. At 0 hour time point, three large drops of blood (volume ˜ 100 μL) were collected from the maxillary vein of each mouse into serum gel separator tubes. The tubes were centrifuged at 2200-2500 rpm for 15 minutes, and the serum was collected into 96-well plates for subsequent measurement of cytokines. At 18 hours post in vivo LPS challenge, the peritoneal cells were obtained from periotenal cavity as aforementioned for subsequent flow cytometry analysis.
Analysis of expression of activation markers on peritoneal macrophages after LPS ex vivo challenge. Upon collection of supernatants for cytokine analysis, the plates were washed twice with 1×PBS w/o Ca^++/Mg2^++ (ThermoFisher Scientific, Cat #14190144), and the adherent peritoneal cells were harvested by addition of 250-300 μL of cold Macrophage Detachment Solution DXF (PromoCell, Cat #C41330) for 40 minutes. The detached cells were collected into 50-mL tubes and centrifuged at 350×g for 15 minutes. After two washes with 1×PBS supplemented with 2 mM EDTA, the cells were resuspended in Cell Staining Buffer (Biolegend, #420201) and plated at 1×10^6 cells per well in a 96-well V bottom plate. Cells were centrifuged and cell pellets were resuspended in 100 μL of LIVE/DEAD Blue Fluorescent Reactive Dye (Life Technologies, Cat #L34962) diluted at 1:600 in 1×PBS to determine cell viability. Cells were incubated at room temperature for 20 minutes in dark. After one wash with 1×PBS, cells were incubated in Cell Staining Buffer containing 10 μg/mL of purified rat anti-mouse CD16/CD32 Fc Block (Clone: 2.4G2; BD Biosciences, Cat #553142) for 10 minutes at 4° C. The cells were washed once and incubated in the appropriate antibody mixture diluted in Brilliant Stain Buffer (BD Biosciences, Cat #566345) for 30 minutes at 4° C. in dark. The cells were subsequently washed with 1×PBS, resuspended in Cell Staining Buffer and acquired on FACS LSRFortessa X-20 flow cytometer (Becton Dickinson). Data were analyzed using FlowJo (Tree Star).

[2] = tested on: Msr1^hu/hu ApoE^−/− mice; assay: In vivo LPS-induced cytokine production in serum; set-up: species or system mouse; settings: 24 hours before in vivo LPS
Procedure: To examine the anti-inflammatory effect of the anti-MSR1 antibody-steroid conjugates, an ex-vivo and in vivo LPS-induced inflammatory immune response model was performed.
Generation of a mouse inflammatory immune response model. Mice homozygously expressing human MSR1 extracellular domain in place of the mouse MSR1 extracellular domain and with a homozygous deletion of the ApoE gene were utilized (resulting mice referred to as Msr1^hu/hu ApoE^−/− mice).
as §1

[3] = target: T1, RAW264.7 cells (MSR1 positive); assay: Flow cytometry binding to cell surface-expressed mouse MSR1; assay type: cell-based; settings: 10 μg/mL antibody
Procedure: To block binding to Fc receptors, RAW264.7 cells were incubated for 30 minutes at 4° C. with 500 μg/mL mouse IgG (Jackson ImmunoResearch, Cat #015-000-003) diluted in staining buffer, while B16F10.9 cells remained in staining buffer. Following Fc receptor blocking, 10 μg/mL of anti-MSR1 antibodies or an isotype control antibody were added to the cells and were subsequently incubated for 30 minutes on ice. […] The signal to noise (S/N) was determined by calculating the ratio of the anti-MSR1 antibodies or the control antibodies MFI to the unstained sample MFI (Table 11).

Molecule	LPS-mediated expression of CD80, pMΦ Cells ([1]; administered 24 hours before)	LPS-mediated expression of CD80, non-pMΦ Cells ([1]; administered 24 hours before)	LPS-mediated expression of CD80, pMΦ Cells ([1]; administered 48 hours before)	LPS-mediated expression of CD80, non-pMΦ Cells ([1]; administered 48 hours before)	LPS-mediated expression of CD80, pMΦ Cells ([1]; administered 72 hours before)	LPS-mediated expression of CD80, non-pMΦ Cells ([1]; administered 72 hours before)	LPS-mediated expression of CD80 on hMSR1^+F4/80^+CD11b^+ peritoneal macrophages (pMΦ) ([1]; in vivo administration)	Cytokine IL-6 in serum ([2]; 10.67 mg/kg) [ng/mL]	Cytokine KC-GRO in serum ([2]; 10.67 mg/kg) [ng/mL]	Cytokine TNF-α in serum ([2]; 10.67 mg/kg) [ng/mL]	Cytokine IL-6 in serum ([2]; 32.03 mg/kg) [ng/mL]	Cytokine KC-GRO in serum ([2]; 32.03 mg/kg) [ng/mL]	Cytokine TNF-α in serum ([2]; 32.03 mg/kg) [ng/mL]	Cytokine IL-6 in serum ([2]; 96.08 mg/kg) [ng/mL]	Cytokine KC-GRO in serum ([2]; 96.08 mg/kg) [ng/mL]	Cytokine TNF-α in serum ([2]; 96.08 mg/kg) [ng/mL]	RAW264.7 MFI [3]	RAW264.7 S/N [3]	signal to noise (S/N), MFI over unstained sample MFI [3]
B1	61.1 ± 1.3 % relative to PBS/LPS-treatment	95.5 ± 2.6 % relative to PBS/LPS-treatment	58.7 ± 4.2 % relative to PBS/LPS-treatment	99 ± 1.8 % relative to PBS/LPS-treatment	63.9 ± 1.01 % relative to PBS/LPS-treatment	102.3 ± 0.14 % relative to PBS/LPS-treatment	significant reduction	33 ± 8.1	13.3 ± 1.2	0.51 ± 0.08	15.34 ± 5.2	10.6 ± 2.8	0.48 ± 0.18	7.7 ± 3.1	5.1 ± 1.5	0.42 ± 0.14			
B2																	12810	5	5
